Biological target: DTL (UniProt Q9NZJ0)
Experiment: co-IP with His tag antibody
Conditions: reference: His-PDCD4 wild type; sites S67

PDCD4 (from UniProt Q53EL6) His-PDCD4(S67A)
binding against the reference: lost

Source: paper PMC6693180
